Tests used:
Type in all cases: biochemical
[1] = Substrate specificity compared across 4-methylumbelliferyl-β-D-glycosides
Protocol: (§1) Parameters were determined by the method of initial rates. Activity was measured in time course assays of the hydrolysis of 4-methylumbelliferyl-β-D-glycosides (β-D-gluco, β-D-galacto, β-D-fuco, β-D-manno, β-D-xylo, β-D-glucurono) at 5-15 concentrations (0.001-1.5 mM) incubated at 80° C. in 50 mM sodium phosphate buffer, pH 6.5. Reactions were terminated at 2, 5, 10, 15 min by the addition of 100 μl of ice cold 1M NazCO3, pH 10 and analyzed (Labsystems Fluoroscan Ascent plate reader, […]). KM and kcat were derived by fitting the initial rates to hyperbolic Michaelis-Menten curves using GraFit 4 (Erithacus Software Ltd, Staines, UK).
(§2) Determination of the Michaelis-Menten parameters for the WT and mutant enzymes was performed at pH 6.5 at 80° C. for a broad range of representative, fluorophore-containing 4-methylumbelliferyl glycoside substrates, which allowed activities to be determined with a high degree of sensitivity (Table). Under these optimized assay conditions, the glucoside (Glc), galactoside (Gal) and fucoside (Fuc) substrates were hydrolysed well by SSβG-WT, but the xyloside (Xyl) substrate was hydrolysed relatively poorly (approx. 3% of turnover as determined by kcat compared with β-D-glucoside). […] In all cases the absolute D-stereospecificity and β-stereoselectivity of SSβG was maintained and no activity was detected towards L- or α-glycoside substrates.

[2] = Hydrolysis of 4-methylumbelliferyl-β-D-mannoside, initial rates; details: 80° C., pH 6.5
Protocol: as §1, §2

[3] = Parallel one-pot glycoside synthesis (transglycosylation to MeOH); details: 50° C., 1:9 MeOH:phosphate buffer pH 6.5
Protocol: Enzyme (WT, […] or E432C, 1 mg) was added to a mixed solution (1 mL) of para-nitrophenyl (pNP) β-D-manno-, galacto-, gluco- and xylo- pyranosides (0.03 mmol of each) in 1:9 MeOH:phosphate buffer (pH 6.5) and incubated at 50° C. for 45 min (WT), 4 h (WT), 8 h (W433C, E432C). After this time the solutions were extracted with EtOAc to remove para-nitrophenol and passed through short Sephadex and Celite:Graphite (1:1) columns to remove protein, pNP-glycoside and remaining para-nitrophenol. Solvent was removed and product mixtures were analysed by ^1H NMR and ESMS. Yields based on donor were calculated from integration of anomeric proton resonances in ^1H NMR (D2O, 500 MHz): α-Gal (δ 5.12, d, […]), α-Glc (δ 5.08, d, 3.8 Hz), α-Xyl (δ 5.04, d, J=3.4 Hz), α-Man (δ 5.03, d, J=1.8 Hz), β-Man (δ 4.75, s), β-Glc (δ 4.49, d, J=8.0 Hz), P-Gal (δ 4.45, d, 7.9 Hz), Me-β-Man (δ 4.44, s), β-Xyl (δ 4.42, d, J=7.8 Hz), Me-β-Glc (δ 4.23, d, J 8.1 Hz), Me-β-Xyl (δ 4.18, d, J=7.8 Hz), Me-β-Gal (δ 4.17, d, J=8.0 Hz).
Scheme 1: Parallel glycoside syntheses using SSβG-WT, -E432C and -W433C as catalysts. […] Such balanced libraries are not produced by SSβG-WT even under varying reaction times.

B1: WT: Wild type β-glycosidase from Sulfolobus solfataricus (SEQ ID NO: 2), recombinant with N-terminal His6-tag (protein, listed as Sulfolobus solfataricus)
chain: MYSFPNSFRFGWSQAGFQSEMGTPGSEDPNTDWYKWVHDPENMAAGLVSGDLPENGPGYWGNYKTFHDNAQKMGLKIARLNVEWSRIFPNPLPRPQNFDESKQDVTEVEINENELKRLDEYANKDALNHYREIFKDLKSRGLYFILNMYHWPLPLWLHDPIRVRRGDFTGPSGWLSTRTVYEFARFSAYIAWKFDDLVDEYSTMNEPNVVGGLGYVGVKSGFPPGYLSFELSRRHMYNIIQAHARAYDGIKSVSKKPVGIIYANSSFQPLTDKDMEAVEMAENDNRWWFFDAIIRGEITRGNEKIVRDDLKGRLDWIGVNYYTRTVVKRTEKGYVSLGGYGHGCERNSVSLAGLPTSDFGWEFFPEGLYDVLTKYWNRYHLYMYVTENGIADDADYQRPYYLVSHVYQVHRAINSGADVRGYLHWSLADNYEWASGFSMRFGLLKVDYNTKRLYWRPSALVYREIATNGAITDEIEHLNSVPPVKPLRH
modifications: N-terminal His6 tag
[1]
  specificity range of kcat/KM for Glc:Gal:Xyl:Man: 100 fold
[2]; 4-MUMan
  Km: 36 ± 9 µM
  kcat: 1.8 ± 0.2 s⁻¹
[2]
  β-D-mannoside activity, turnover relative to β-D-glucoside: approx. 1%
[3]; 45 min
  Yield of Products, product 1 (β-glycoside of Glc): 40%
  Yield of Products, product 2 (β-glycoside of Gal): 33%
  Yield of Products, product 3 (β-glycoside of Man): 2%
  Yield of Products, product 4 (β-glycoside of Xyl): 3%
  Yield of Products, product 5: 14%
  Yield of Products, product 6: 8%
[3]; 4 h
  Yield of Products, product 3 (β-glycoside of Man): 8%
  Yield of Products, product 4 (β-glycoside of Xyl): 20%
  Yield of Products, product 5: 33%
  Yield of Products, product 6: 30%
  Yield of Products, product 7: 4%
  Yield of Products, product 8: 5%

Source: patent publication US20090181444A1, “MODIFIED CARBOHYDRATE PROCESSING ENZYME” (priority 2002, published 2009)
